Reference: PMC8765073 (mAbs, 2022)
Positions count from the first letter of the chain named. Read-outs that look alike come from different tables or passages of the source.

B1: Y1.10 (scFv, V domains shown)
VH: QVQLQQSGAEVKKPGSSVKVSCKASGGTFGNWTISWVRQAPGQGLEWMGGIGPRQGEATYAQKFQGRVTITTDESTSTAYMELSSLRSEDTAVYYCARETWYTSGGMDVWGQGTTVTVSS
VL: SYELTQPPSVSVAPGKTARITCGGNNIGRKSVHWYQQKPGQAPVLVVYDDSDRPSGIPERFSGSNSGNTATLTISRVEAGDEADYYCQVYDLWSSDYVFGTGTKVEIK
B2: Y2.1 (scFv, V domains shown)
VH: B1 VH with T33S, G52V, Q55D
VL: B1 VL
B3: Y9.7 (scFv, V domains shown)
VH: B1 VH with T33S, G52N, R54S, Q55I
VL: B1 VL
B4: Y6.8 (scFv, V domains shown)
VH: B1 VH with G52A, R54D, Q55R
VL: B1 VL
B5: D27LE (antibody, V domains shown)
VH: B1 VH with T33S, G52D, R54S, Q55R
VL: B1 VL
B6: Y4.2 (D27LEY), scFv (scFv, V domains shown)
VH: B1 VH with T33S, G52A, R54G, Q55R
VL: B1 VL
B7: D27LE, scFv (scFv, V domains shown)
VH: B1 VH with T33S, G52D, R54S, Q55R
VL: B1 VL
B8: Y7.10 (scFv, V domains shown)
VH: B1 VH with G52I, R54S, Q55R
VL: B1 VL
B9: Y4.1 (scFv, V domains shown)
VH: B1 VH with G52A, R54T, Q55R
VL: B1 VL
B10: Y9.6 (scFv, V domains shown)
VH: B1 VH with G52I, R54T, Q55I
VL: B1 VL
B11: Y8.10 (scFv, V domains shown)
VH: B1 VH with T33S, G52A, R54G
VL: B1 VL
B12: D27LEY (antibody, V domains shown)
VH: B1 VH with T33S, G52A, R54G, Q55R
VL: B1 VL

Tests used:
Test in all cases: BLI
N501Y mutant RBD [1] = biological target: T1, N501Y mutant RBD (SARS-CoV-2 Alpha (B.1.1.7), RBD N501Y, N501Y)
N501Y mutant RBD [2] = biological target: T1, N501Y mutant RBD; remark: listed apart in the source
RBD of the Delta variant = RBD of the Delta variant (SARS-CoV-2, Delta (B.1.617.2), L452R | T478K)

Binder	Kd (N501Y mutant RBD [1]) [nM]	Kd (N501Y mutant RBD [2]) [nM]	Kd (RBD of the Delta variant) [nM]
B1	842	–	–
B2	30.8	–	–
B3	79.2	–	–
B4	93.5	–	–
B5	–	0.54	–
B6	9.4	4.87	–
B7	276	–	–
B8	41.2	–	–
B9	102	–	–
B10	263	–	–
B11	21.3	–	–
B12	–	< 0.001	0.32
